Consider 2 substances from publication PMC7738341.

Assay [1] has as its target tubulin (microtubules) (human (endogenous in HeLa)) (UniProt P68363).
Assay [2] shares this target. The assay can be described thus: FRAP; live HeLa cells expressing the CST, 37°C, 5% CO2; EYFP bleached in a circular ROI of 2 μm radius in the cytoplasm; recovery curves fitted by a two-phase exponential association function; the phase with lower mobility is named MTs-bound fraction.

Sequence of UniProt P68363 (P68363 whole entry, chain 1 of 2): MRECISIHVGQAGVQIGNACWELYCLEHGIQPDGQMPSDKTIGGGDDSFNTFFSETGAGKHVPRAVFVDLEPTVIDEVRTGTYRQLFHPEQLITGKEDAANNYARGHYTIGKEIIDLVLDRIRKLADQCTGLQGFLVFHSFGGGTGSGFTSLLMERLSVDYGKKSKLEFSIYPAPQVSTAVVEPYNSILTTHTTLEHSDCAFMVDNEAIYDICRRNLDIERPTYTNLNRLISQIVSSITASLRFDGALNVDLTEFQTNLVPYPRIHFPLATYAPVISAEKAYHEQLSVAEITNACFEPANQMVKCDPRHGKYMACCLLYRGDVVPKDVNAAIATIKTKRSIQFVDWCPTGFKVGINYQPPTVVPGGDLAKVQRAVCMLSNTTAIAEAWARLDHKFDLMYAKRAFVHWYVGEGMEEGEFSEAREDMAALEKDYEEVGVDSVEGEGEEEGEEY
Sequence of UniProt P68363 (P07437 whole entry, chain 2 of 2, further chain): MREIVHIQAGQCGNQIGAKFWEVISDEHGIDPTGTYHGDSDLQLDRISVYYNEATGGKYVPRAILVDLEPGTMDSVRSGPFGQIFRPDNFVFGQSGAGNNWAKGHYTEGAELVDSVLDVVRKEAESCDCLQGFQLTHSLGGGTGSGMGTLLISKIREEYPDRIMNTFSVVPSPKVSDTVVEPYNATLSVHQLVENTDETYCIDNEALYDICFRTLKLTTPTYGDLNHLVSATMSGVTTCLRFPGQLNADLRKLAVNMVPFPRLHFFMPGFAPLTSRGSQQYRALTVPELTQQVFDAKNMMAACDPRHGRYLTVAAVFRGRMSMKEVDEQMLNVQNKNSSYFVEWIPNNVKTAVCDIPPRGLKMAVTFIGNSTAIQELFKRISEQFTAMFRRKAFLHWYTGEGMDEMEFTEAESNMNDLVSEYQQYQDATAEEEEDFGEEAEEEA

Take “Conformational Sensitive Tau with the Q336H mutation (CST^Q336H) (from UniProt P10636-8 1-441) (natural protein)”: the FRAP mobile fraction (Mob calc) in live HeLa cells in assay [1] is 79%. “Conformational Sensitive Tau, wild type (CST^WT) (from UniProt P10636-8 1-441) (natural protein)” gave an MTs-bound fraction in assay [2] of 61%.
